Assay results: publication PMC9458469 (The Journal of Cell Biology, 2022)

B1: Hsp-16.1 (purified) (natural protein, C. elegans, UniProt P34696 1-145, looked up)
chain: MSLYHYFRPAQRSVFGDLMRDMAQMERQFTPVCRGSPSESSEIVNNDQKFAINLNVSQFKPEDLKINLDGHTLSIQGEQELKTEHGYSKKSFSRVILLPEDVDVGAVASNLSEDGKLSIEAPKKEAIQGRSIPIQQAPVEQKTSE

What was measured:
[1] = biological target: Hsp-12.1 (purified) (C. elegans); assay: SEC
SEC = biological target: the molecule itself; assay: SEC

Row | Molecule | stoichiometry N [1] | stoichiometry N (SEC)
1 | Hsp-12.1 (purified) (natural protein) | 4 subunits | 
2 | B1 |  | ~34 subunits
